Earlier results on one substance are cited in publication PMC8512968.

pKd: −log10 of the molar value.

In the series the target is band 3 cytoplasmic domain (Homo sapiens) (UniProt P02730). In words: sedimentation equilibrium AUC.

For “band 3 cytoplasmic domain (from UniProt P02730)”, the negative-log Kd (pKd) is 5.55.
